For the data set, the system named is MS2 coat protein. Description: apparent KD of MS2 coat protein; designed switch direction (-1 OFF switch, 1 ON switch): -1; higher = weaker reporter binding. The essentials: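 Normalised cluster fluorescence was curve-fitted, and each design's median over clusters is its apparent KD. Before this, SNAP-549-labelled MS2 coat protein was titrated from 0.7 or 1.5 nM, doubling to 3 µM, over RNA switches transcribed on Illumina chips by stalled E. coli RNA polymerase. Titrations had no input, 200 uM small-molecule ligand, or an oligonucleotide input, and steps lasted 0.8–1.5 h (lowest) to 10–20 min (highest).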

[1] abbreviates: input ligand: microRNA oligo, concentration not stated.
Setting [2] is: Eterna round: R95, input ligand: microRNA oligo, concentration not stated.

With “UCGUUUCGUGUAGGAUAUUGGCCUGCUCUGGGUCGAGAAGGACAUGAGGAUCACCCAUGUAUGUUAUUAUCACGCGUGGCGCAU [Design 82] (Eterna round: R96, puzzle: Exclusion NG 1)”, the “apparent KD of MS2 coat protein” value is 124 nM (input ligand: FMN 200 uM), 34 nM under setting [1] and 36.6 nM (input ligand: none).

As to “UCUACGUCAGGAUAUACAAGCGGUGCUCUGAUGCUGUCCAGACAUGAGGAUCACCCAUGUAGAAGGGACGACAA [Eternabot (L1) Solution 68] (Eterna round: R97, puzzle: Exclusion 2)”, the “apparent KD of MS2 coat protein” value runs as follows: (input ligand: FMN 200 uM) 42.6 nM; (input ligand: none) 365 nM.

Take “UCUCAGUCAGGAUAUCGUUAAUUUAAUUGUUUGUAUUAGUUCGAGAAGGGACAUGAGGAUCACCCAUGUACUCU [Ex4 #18] (Eterna round: R97, puzzle: Exclusion 4)”: the “apparent KD of MS2 coat protein” value (input ligand: FMN 200 uM) is 29.8 nM and the “apparent KD of MS2 coat protein” value (input ligand: none) was determined as 18.8 nM.

Regarding “UCUCUUGGGCAAGGAUAUCCUGCGCGGUUCCGGUUCGUGUCUGUCACAUGAGGAUCACCCAUGUGGGAGAAGGUGCCUGCGGUC [Design 77] (Eterna round: R96, puzzle: Exclusion NG 2)”, the “apparent KD of MS2 coat protein” value is, setting by setting: (input ligand: FMN 200 uM) 24.5 nM; under setting [1], 12 nM; (input ligand: none) 16.7 nM.

For “UCUUAACAUGAGGAUCACCCAUGUGAGGAUAUGAUGCAGCAGUGGUCUACGCUGUGCAUCAGAAGGUACAUGGG (puzzle: Exclusion 1)”, the “apparent KD of MS2 coat protein” value under setting [2] was 26.8 nM.

Consider “UCUUACUGAGGAUAUACUUAGAUUUACAUGAGGAUCACCCAUGUUCCUCUAUGUAUAUAUGUAGAAGGCAGAAGAU [Mat - Exclusion 5 - JL Mod - D47] (Eterna round: R97, puzzle: Exclusion 5)”, for which the “apparent KD of MS2 coat protein” value by setting is: (input ligand: FMN 200 uM) 292 nM; (input ligand: none) 35.6 nM.

With “UCUUAUUGCAAGGAUAUGCAAAUUAUUAUUAAUGCAGAAGGUGCUACAUGAGGAUCACCCAUGUUUCCGGGUUU [JR_E6_Sub042] (puzzle: Exclusion 6)”, the “apparent KD of MS2 coat protein” value under setting [2] is 43.3 nM.

With “UCUUCACAUGAGGAUCACCCAUGUGAGGAUAUGGUUUCGCUGGCCGUAGCCAGUGGAACCAGAAGGCGCGUGAU [Mat - Exclusion 1 - JL Mod - D23] (Eterna round: R97, puzzle: Exclusion 1)”, the “apparent KD of MS2 coat protein” value reads like this: (input ligand: FMN 200 uM) 89.6 nM; (input ligand: none) 73.5 nM.

With “UCUUGUUGUCCGUGAGAAUACAUGAGGAUCACCCAUGUUAGUUUGAUUAUGAUGUGUAAGUUUGUUGCUCGUUUUAU [JR_STOV1_Sub070] (Eterna round: R97, puzzle: Sensor, turn-off variant 1)”, the “apparent KD of MS2 coat protein” value is, setting by setting: (input ligand: FMN 200 uM) 36.4 nM; (input ligand: none) 41.3 nM.

For the sequence “UGACAGGAGUAGGAUAUGCCCACCGUCCGACUGGCAGAAGGACUCACAUGAGGAUCACCCAUGUAGUUAUGUAC [Eternabot (L2) Solution 96] (Eterna round: R97, puzzle: Exclusion 6)”, the “apparent KD of MS2 coat protein” value by setting is: (input ligand: FMN 200 uM) 20.1 nM; (input ligand: none) 16 nM.

As to “UGACAGGCUAGACGAACAAACAUGAGGAUCACCCAUGUCAUUCCAUGUCUGCGUCAUAAGUAGAUGCUCGUAUAUCG [Eternabot (Original) Solution 33] (Eterna round: R97, puzzle: Sensor, turn-off variant 1)”, the “apparent KD of MS2 coat protein” value reads like this: (input ligand: FMN 200 uM) 16.6 nM; (input ligand: none) 18.1 nM.

Take “UGACCUAAAGGAUAUACAUGAGGAUCACCCAUGUCUUCAGCUGCCGUAAGGGAUCUUAGUAGAAGGUUAGGUCG [Eternabot (L1) Solution 43] (Eterna round: R97, puzzle: Exclusion 3)”: the “apparent KD of MS2 coat protein” value runs as follows: (input ligand: FMN 200 uM) 1360 nM; (input ligand: none) 84 nM.

With “UGAGAACUGCGAGGAUAUACAUGAGGAUCACCCAUGUAAUAGUGUGAGGCUUUGCCUCACACAAUGUAGAAGGCGCAGUUCUCU [Mat - Exclusion NG 2 - Mod of JL - D7] (Eterna round: R96, puzzle: Exclusion NG 2)”, the “apparent KD of MS2 coat protein” value is 18.4 nM (input ligand: FMN 200 uM), 10.1 nM under setting [1] and 11.9 nM (input ligand: none).

With “UGAGACUGAGGAUAUACUGGCCCAUAAAGUGGGUCGUGGGUACAUGAGGAUCACCCAUGUAGAAGGCAGCCUCG [Omei Repeat Sequence v6] (Eterna round: R97, puzzle: Exclusion 2)”, the “apparent KD of MS2 coat protein” value was 656 nM (input ligand: FMN 200 uM) and 55.4 nM (input ligand: none).

Regarding “UGAGACUGAGGAUAUACUUGCCCAUAAAGUGGGUAGUGGGUACAUGAGGAUCACCCAUGUAGAAGGCAGCCUCG [Omei Repeat Sequence v3] (Eterna round: R97, puzzle: Exclusion 2)”, the “apparent KD of MS2 coat protein” value is, setting by setting: (input ligand: FMN 200 uM) 597 nM; (input ligand: none) 46.3 nM.

For the sequence “UGAGAGUGAGGAUAUACGUCGCUGGUCCAGAUGGACGCAUGACAUGAGGAUCACCCAUGUAGAAGGCAUUUCCC [Enxela Mod 8 - Jieux - Exclusion 2] (Eterna round: R97, puzzle: Exclusion 2)”, the “apparent KD of MS2 coat protein” value (input ligand: FMN 200 uM) was 61.9 nM and the “apparent KD of MS2 coat protein” value (input ligand: none) was determined as 28.4 nM.

“UGAGUCUAAGGAUAUCUGAGGCGCGACAUGAGGAUCACCCAUGUCUCCAAGGAGAGAGCUGGAGAAGGUAGCUGGA [Eternabot (L2) Solution 81] (Eterna round: R97, puzzle: Exclusion 5)”: the “apparent KD of MS2 coat protein” value reads like this: (input ligand: FMN 200 uM) 17.6 nM; (input ligand: none) 18.6 nM.

“UGAGUGCUGCGAGGAUAUACAUGAGGAUCACCCAUGUAAUCGUGUGAGGCAAAGCCUCACACGAAGUAGAAGGCGCAGUACUCA [Mat - Exclusion NG 2 - Mod of JL - D18] (Eterna round: R96, puzzle: Exclusion NG 2)”: the “apparent KD of MS2 coat protein” value reads like this: (input ligand: FMN 200 uM) 15.7 nM; under setting [1], 12.4 nM; (input ligand: none) 18.6 nM.

“UGAGUGCUGCGAGGAUAUACAUGAGGAUCACCCAUGUAAUCGUGUGAGGCUUUGCCUCACACGAAGUAGAAGGCGCAGUACUCU [JL ENG2 1.10] (Eterna round: R96, puzzle: Exclusion NG 2)”: the “apparent KD of MS2 coat protein” value runs as follows: (input ligand: FMN 200 uM) 12 nM; under setting [1], 9.84 nM; (input ligand: none) 13.5 nM.

For “UGAGUGCUGCGAGGAUAUACAUGAGGAUCACCCAUGUGGAUCUGUGAGGCUUUGCCUCACAGGAUGUAGAAGGCGCAGUACUCU [JL ENG2 1.19] (Eterna round: R96, puzzle: Exclusion NG 2)”, the “apparent KD of MS2 coat protein” value by setting is: (input ligand: FMN 200 uM) 156 nM; under setting [1], 17.8 nM; (input ligand: none) 27.4 nM.

In the case of “UGAGUGCUGCGAGGAUAUACAUGAGGAUCACCCAUGUGGUCCUGUGAGGCUUUGCCUCACAGGAUGUAGAAGGCGCAGUACUCU [JL ENG2 1.18] (Eterna round: R96, puzzle: Exclusion NG 2)”, the “apparent KD of MS2 coat protein” value is 82.9 nM (input ligand: FMN 200 uM), 13.8 nM under setting [1] and 17.4 nM (input ligand: none).

As for “UGAGUGCUGCGAGGAUAUACAUGAGGAUCACCCAUGUUUUCCUGUGAGGCUUUGCCUCACAGGAUGUAGAAGGCGCAGUACUCU [JL ENG2 1.14] (Eterna round: R96, puzzle: Exclusion NG 2)”, the “apparent KD of MS2 coat protein” value runs as follows: (input ligand: FMN 200 uM) 9.13 nM; under setting [1], 7.33 nM; (input ligand: none) 12.1 nM.

As for “UGAGUGCUGCGAGGAUAUACAUGAGGAUCACCCAUGUUUUCGUGUGAGGCAAAGCCUCACACGAUGUAGAAGGCGCAGUACUCU [Mat - Exclusion NG 2 - Mod of JL - D35] (Eterna round: R96, puzzle: Exclusion NG 2)”, the “apparent KD of MS2 coat protein” value runs as follows: (input ligand: FMN 200 uM) 13.2 nM; under setting [1], 10.7 nM; (input ligand: none) 16.1 nM.

With “UGAUCAGACCGAGGAUAUACAGGGAGGACGCACGUGAGUGCGUCCACUACAUGAGGAUCACCCAUGUAGAAGGCGGUCUGAUCU [JL ENG2 1.99] (Eterna round: R96, puzzle: Exclusion NG 2)”, the “apparent KD of MS2 coat protein” value (input ligand: FMN 200 uM) is 319 nM, the “apparent KD of MS2 coat protein” value under setting [1] came to 16.9 nM and the “apparent KD of MS2 coat protein” value (input ligand: none) came to 19.9 nM.

“UGAUCAGACCGAGGAUAUAUAUGUAGGACGCACGUGAGUGCGUCCAGUACAUGAGGAUCACCCAUGUAGAAGGCGGUCUGAUCU [JL ENG2 1.96] (Eterna round: R96, puzzle: Exclusion NG 2)”: the “apparent KD of MS2 coat protein” value is, setting by setting: (input ligand: FMN 200 uM) 20.3 nM; under setting [1], 9.99 nM; (input ligand: none) 13.6 nM.

In the case of “UGAUCUAGCGGAGGAUAUACAUGAGGAUCACCCAUGUAAGUCGCCUUACCGUAGUGAAGCAUCAUGUAGAAGGCCGCUAGAUCU [MOD4 ENG2 3.62 by JL (unstable but ms2 present in dot)] (Eterna round: R96, puzzle: Exclusion NG 2)”, the “apparent KD of MS2 coat protein” value came to 153 nM (input ligand: FMN 200 uM), 19.9 nM under setting [1] and 57.3 nM (input ligand: none).

In the case of “UGAUGUAGAGGAUAUUGUAUGGCUCACAUGAGGAUCACCCAUGUAGGAUCACCUAGAGCCCGAGAAGGCUAGAGGU [Eternabot (L2) Solution 4] (Eterna round: R97, puzzle: Exclusion 5)”, the “apparent KD of MS2 coat protein” value is 47 nM (input ligand: FMN 200 uM) and 45.8 nM (input ligand: none).

As for “UGCAUGCUAGGAUAUACGAAACAUUAGGGUUCUUCGUAUGAACAUGAGGAUCACCCAUGUAGAAGGAGCGUGCU [Mod9 of JL-ex2-2.15 mat747 mod] (puzzle: Exclusion 2)”, under setting [2], the “apparent KD of MS2 coat protein” value was determined as 31.1 nM.

As for “UGCAUGCUAGGAUAUACGGGACAUUAGGGUUCGUCGUGUGGACAUGAGGAUCACCCAUGUAGAAGGAGCGUGCU [Mod3 of JL-ex2-2.15 mat747 mod] (puzzle: Exclusion 2)”, the “apparent KD of MS2 coat protein” value under setting [2] turned out to be 78.2 nM.

Consider “UGCCAAGCAGGAUAUGCCCGGAAUAACAUGAGGAUCACCCAUGUGACCGAUUGAUGUUCUGCAGAAGGGCAUGGAA [Mat - Exclusion 5 - Eli Mod - D2] (Eterna round: R97, puzzle: Exclusion 5)”, for which the “apparent KD of MS2 coat protein” value is 17.2 nM (input ligand: FMN 200 uM) and 35.7 nM (input ligand: none).

The values are drawn from the supplement of paper PMC9170038.
